Experiments:
pro-dom-BDNF = target: T1, pro-dom-BDNF (Homo sapiens, UniProt P23560); experiment: SPR direct binding of sortilin peptides to immobilized pro-dom-BDNF; details: for direct interaction with immobilized pro-dom-BDNF: concentration series of peptide, FIG. 18; for affinity towards pro-dom-BDNF compared with pro-dom-NGF: single peptide concentration, identical amounts of immobilized pro-dom-NGF and -BDNF
T1 construct: pro-dom-BDNF (residues Ala^1-Arg^110); made in house; host or cells: E. coli BL21/DE3
T1 sequence (P23560 19-128 limits assumed): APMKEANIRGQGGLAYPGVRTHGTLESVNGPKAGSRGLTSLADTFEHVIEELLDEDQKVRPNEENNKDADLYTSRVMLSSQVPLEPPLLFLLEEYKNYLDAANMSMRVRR
Description: (§1) FIG. 18: Surface plasmon resonance binding analysis of sortilin peptides to pro-dom-NGF and -BDNF. The direct interaction between sortilin peptides (as identified by SPOT analysis) and the pro-domains of NGF and BDNF was verified by surface plasmon resonance analysis using immobilized pro-dom-NGF and -BDNF. […] The numbering in this figure refers to the mature part of Sortilin.
(§2) A biosensor chip from Biacore (CM5, cat. no. BR-1000-14) was activated using the NHS/EDC method as described by supplier followed by coating with Sortilin to a protein densitiy of 79 fmol/mm2, and used for affinity measurements of the recombinant pro-domains of NGF and BDNF. Regeneration of the flow cell after each cycle of ligand binding experiment was performed by two 10 uL pulses of regeneration buffer (10 mM glycine-HCl, pH 4.0, 500 mM NaCl, 20 mM EDTA, and 0.005% Tween-20) and a single injection of 0.001% SDS. Fitting of sensorgrams for affinity estimations was performed using the Biaevaluation version 3.1. Following similar protocols, immobilization of pro-dom-NGF or pro-dom-BDNF was also performed on a CM5 biosensor chip using the NHS/EDC coupling kit according to manufactures instructions (Biacore, Sweden), giving similar surface densitites of immobilized protein (˜300 fmol/mm2). […] This chip was subsequent used to examine the binding of 390 nM wild-type Sortilin domain in CaHBS buffer at a flow of 5 uL/min, which in the absence of any competing peptide gave a ˜300 RU signal.

pro-dom-NGF = target: T2, pro-dom-NGF (Homo sapiens, UniProt P01138, A35V); experiment: SPR direct binding of sortilin peptides to immobilized pro-dom-NGF; details: concentration series of peptide, FIG. 18
T2 construct: pro-dom-NGF (residues Glu^1-Arg^102); made in house; host or cells: E. coli BL21/DE3
T2 sequence (P01138 19-121 A35V): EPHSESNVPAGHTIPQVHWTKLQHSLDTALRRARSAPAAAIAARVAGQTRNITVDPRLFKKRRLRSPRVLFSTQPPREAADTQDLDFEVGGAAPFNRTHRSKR
Description: as §1
A biosensor chip from Biacore (CM5, cat. no. BR-1000-14) was activated using the NHS/EDC method as described by supplier followed by coating with Sortilin to a protein densitiy of 79 fmol/mm2, and used for affinity measurements of the recombinant pro-domains of NGF and BDNF. Regeneration of the flow cell after each cycle of ligand binding experiment was performed by two 10 uL pulses of regeneration buffer (10 mM glycine-HCl, pH 4.0, 500 mM NaCl, 20 mM EDTA, and 0.005% Tween-20) and a single injection of 0.001% SDS. Fitting of sensorgrams for affinity estimations was performed using the Biaevaluation version 3.1. Following similar protocols, immobilization of pro-dom-NGF or pro-dom-BDNF was also performed on a CM5 biosensor chip using the NHS/EDC coupling kit according to manufactures instructions (Biacore, Sweden), giving similar surface densitites of immobilized protein (˜300 fmol/mm2). […]

[1] = target: T3, Sortilin binding to immobilized pro-dom-BDNF (Homo sapiens, UniProt P23560); experiment: SPR competition: Sortilin binding to immobilized pro-dom-BDNF in presence of sortilin peptide
T3 construct: pro-dom-BDNF (residues Ala^1-Arg^110); made in house; host or cells: pro-dom-BDNF: E. coli BL21/DE3; Sortilin: EBNA293 cells
T3 sequence (P23560 19-128 limits assumed): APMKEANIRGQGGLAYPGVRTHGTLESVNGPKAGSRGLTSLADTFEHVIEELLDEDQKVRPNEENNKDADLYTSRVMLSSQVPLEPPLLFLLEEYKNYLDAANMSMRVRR
Experimental: FIG. 19: Surface plasmon resonance analysis of competition studies by the sortilin peptides.
as §2

[2] = target: T4, p75-IgG-Fc chimeric protein (Homo sapiens, UniProt P08138); experiment: Surface plasmon resonance (BIAcore) binding to immobilized p75-IgG-Fc; details: 91.5 fmol/mm^2 immobilized p75-IgG-Fc; calculated from on and off rates
T4 construct: purchased R&D systems (Oxon, UK)
T4 sequence (P08138 with tags, fused parts or gaps limits assumed): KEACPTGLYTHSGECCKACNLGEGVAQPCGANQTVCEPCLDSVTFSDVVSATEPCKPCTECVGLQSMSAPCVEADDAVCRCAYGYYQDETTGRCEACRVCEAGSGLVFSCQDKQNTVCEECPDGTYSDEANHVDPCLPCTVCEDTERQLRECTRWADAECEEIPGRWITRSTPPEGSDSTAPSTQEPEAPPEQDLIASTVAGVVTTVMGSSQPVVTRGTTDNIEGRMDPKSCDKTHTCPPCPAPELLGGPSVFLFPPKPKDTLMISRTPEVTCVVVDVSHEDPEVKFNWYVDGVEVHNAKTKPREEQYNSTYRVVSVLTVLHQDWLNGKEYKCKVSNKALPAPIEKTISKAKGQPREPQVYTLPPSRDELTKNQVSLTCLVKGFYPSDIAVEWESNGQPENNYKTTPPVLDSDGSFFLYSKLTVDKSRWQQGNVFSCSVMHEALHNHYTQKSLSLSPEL
Experimental: (§3) FIG. 2: Characterization of NGF binding to p75, TrkA, and Sortilin as measured by surface plasmon resonance analysis (BIAcore). Binding of 50-500 nM NGF was measured to 91.5 fmol/mm^2 immobilized p75-IgG-Fc chimeric protein (upper panel), to 66 fmol/mm^2 immobilized TrkA-IgG-Fc (middle panel), and to 51 fmol/mm^2 purified Sortilin extracellular domain (lower panel). The on and off rates—100 to 600 seconds and 600 to 1000 seconds, respectively—were recorded and the Kd values for NGF binding were calculated to ˜1 nM for p75, ˜2 nM for TrkA, and ˜8 nM for Sortilin. […]
(§4) FIG. 3: Characterization of proNGF binding to p75, TrkA, and Sortilin as measured by surface plasmon resonance analysis (Biacore). Binding of 25-500 nM proNGF was measured to 91.5 fmol/mm^2 immobilized p75-IgG-Fc chimeric protein (upper panel), to 66 fmol/mm^2 immobilized TrkA-IgG-Fc (middle panel), and to 51 fmol/mm^2 purified Sortilin extracellular domain (lower panel). […]
(§5) FIG. 4: Characterization of binding of the proNGF propeptide to p75, TrkA, and Sortilin as measured by surface plasmon resonance analysis (Biacore). Binding of 25-500 nM propeptide was measured to 91.5 fmol/mm^2 immobilized p75-IgG-Fc chimeric protein (upper panel), to 66 fmol/mm^2 immobilized TrkA-IgG-Fc (middle panel), and to 51 fmol/mm^2 purified Sortilin extracellular domain (lower panel). […]

TrkA-IgG-Fc = target: T5, TrkA-IgG-Fc (Homo sapiens, UniProt P04629); experiment: Surface plasmon resonance (BIAcore) binding to immobilized TrkA-IgG-Fc; details: 66 fmol/mm^2 immobilized TrkA-IgG-Fc; calculated from on and off rates
T5 construct: purchased R&D systems (Oxon, UK)
T5 sequence (P04629 34-407 isoform P04629-2 limits assumed): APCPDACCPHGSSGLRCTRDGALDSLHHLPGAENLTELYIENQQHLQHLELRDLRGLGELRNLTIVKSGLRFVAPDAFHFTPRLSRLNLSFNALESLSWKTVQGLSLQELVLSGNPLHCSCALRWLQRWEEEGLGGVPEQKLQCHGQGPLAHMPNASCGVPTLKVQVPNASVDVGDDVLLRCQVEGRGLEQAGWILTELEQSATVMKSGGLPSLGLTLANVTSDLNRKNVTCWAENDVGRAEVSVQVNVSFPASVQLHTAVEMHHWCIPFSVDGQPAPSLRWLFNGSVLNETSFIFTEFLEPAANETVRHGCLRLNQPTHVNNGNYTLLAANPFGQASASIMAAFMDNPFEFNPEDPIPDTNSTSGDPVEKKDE
Experimental: as §3, §4, §5

[3] = target: T6, Sortilin extracellular domain (Homo sapiens, UniProt Q99523); experiment: Surface plasmon resonance (BIAcore) binding to immobilized purified Sortilin extracellular domain; details: 51 fmol/mm^2 purified Sortilin extracellular domain; calculated from on and off rates
T6 construct: 51 fmol/mm^2 purified Sortilin extracellular domain; made in house; host or cells: stably transfected CHO cells
T6 sequence (Q99523 78-755 limits assumed): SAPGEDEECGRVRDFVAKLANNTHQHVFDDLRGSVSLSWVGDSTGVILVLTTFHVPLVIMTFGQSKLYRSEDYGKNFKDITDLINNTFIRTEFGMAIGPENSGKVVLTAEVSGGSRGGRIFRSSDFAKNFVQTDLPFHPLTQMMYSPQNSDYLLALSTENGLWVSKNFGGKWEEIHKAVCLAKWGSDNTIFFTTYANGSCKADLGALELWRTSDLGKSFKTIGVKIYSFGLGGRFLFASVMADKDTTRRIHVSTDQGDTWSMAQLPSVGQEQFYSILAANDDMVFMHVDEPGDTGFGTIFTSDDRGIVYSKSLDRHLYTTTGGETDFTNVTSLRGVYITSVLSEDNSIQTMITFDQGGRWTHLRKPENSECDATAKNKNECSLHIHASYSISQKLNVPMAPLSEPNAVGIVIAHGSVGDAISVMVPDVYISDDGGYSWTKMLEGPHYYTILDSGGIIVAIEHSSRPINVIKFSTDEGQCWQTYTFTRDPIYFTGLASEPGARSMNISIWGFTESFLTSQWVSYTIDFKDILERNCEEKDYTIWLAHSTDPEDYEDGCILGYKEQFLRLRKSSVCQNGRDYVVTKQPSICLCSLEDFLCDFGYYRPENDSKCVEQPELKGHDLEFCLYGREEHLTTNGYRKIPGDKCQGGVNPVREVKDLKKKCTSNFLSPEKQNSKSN
Experimental: as §3, §4, §5

[4] = target: T7, proNGF binding to immobilized Sortilin (Homo sapiens, UniProt Q99523); experiment: Inhibition of proNGF binding to immobilized Sortilin (Biacore); details: 5 μM inhibitor prebound, then coinjection; 51 fmol/mm^2 Sortilin (FIG. 6)
T7 construct: 51 fmol/mm^2 purified Sortilin extracellular domain; made in house; host or cells: Sortilin: stably transfected CHO cells; proNGF: E. coli
T7 sequence (Q99523 78-755 limits assumed): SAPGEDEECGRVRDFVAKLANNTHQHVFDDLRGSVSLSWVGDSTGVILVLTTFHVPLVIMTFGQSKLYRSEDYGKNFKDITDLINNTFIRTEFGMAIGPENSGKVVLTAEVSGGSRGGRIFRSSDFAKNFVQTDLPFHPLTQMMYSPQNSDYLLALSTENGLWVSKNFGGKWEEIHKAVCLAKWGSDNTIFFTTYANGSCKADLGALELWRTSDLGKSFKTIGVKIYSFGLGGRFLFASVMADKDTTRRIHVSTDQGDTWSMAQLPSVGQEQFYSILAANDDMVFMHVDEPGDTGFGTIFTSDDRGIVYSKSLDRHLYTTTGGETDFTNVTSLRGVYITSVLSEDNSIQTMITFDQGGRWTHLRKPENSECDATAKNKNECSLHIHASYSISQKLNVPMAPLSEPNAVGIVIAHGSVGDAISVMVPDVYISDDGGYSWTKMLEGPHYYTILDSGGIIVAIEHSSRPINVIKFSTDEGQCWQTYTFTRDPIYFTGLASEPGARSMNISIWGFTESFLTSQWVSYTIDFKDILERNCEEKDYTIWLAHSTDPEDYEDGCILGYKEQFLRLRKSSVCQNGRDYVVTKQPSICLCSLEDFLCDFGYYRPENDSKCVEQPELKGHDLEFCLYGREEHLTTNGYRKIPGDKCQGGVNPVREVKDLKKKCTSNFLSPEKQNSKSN

In the case of RIFRSSDFAKNF (listed as Homo Sapiens), the “direct interaction with immobilized pro-dom-BDNF” value (pro-dom-BDNF) is reported as “direct binding”, the “affinity towards pro-dom-BDNF compared with pro-dom-NGF” value (pro-dom-BDNF) is reported as “higher affinity of the peptides towards BDNF than NGF” and the “direct interaction with immobilized pro-dom-NGF” value (pro-dom-NGF) is reported as “direct binding”.

With “RSSDFAKNFVQTDLPF (listed as Homo Sapiens)” the “inhibition of Sortilin binding to immobilized pro-dom-BDNF” value ([1]; 300 uM peptide, 390 nM wild-type Sortilin domain, CaHBS buffer) was ~66%, the “competition of sortilin binding to immobilized pro-dom-BDNF” value ([1]; FIG. 19, + peptide) was “significantly inhibited” and the “direct interaction with immobilized pro-dom-BDNF” value (pro-dom-BDNF) was “direct binding”. For the same molecule, the “affinity towards pro-dom-BDNF compared with pro-dom-NGF” value (pro-dom-BDNF) was “higher affinity of the peptides towards BDNF than NGF” and the “direct interaction with immobilized pro-dom-NGF” value (pro-dom-NGF) was “direct binding”.

In the case of “proNGF: Human recombinant proNGF produced and purified in E. coli”, the Kd [2] is reported as ~12 nM.

B1: proNGF propeptide: human NGF-propeptide expressed in E. coli (protein)
chain: EPHSESNVPAGHTIPQVHWTKLQHSLDTALRRARSAPAAAIAARVAGQTRNITVDPRLFKKRRLRSPRVLFSTQPPREAADTQDLDFEVGGAAPFNRTHRSKR
For B1, the “Kd for binding to p75” value [2] was “no detectable binding”, the “Kd for binding to TrkA” value (TrkA-IgG-Fc) was “no detectable binding” and the Kd [3] was ~8 nM. For the same molecule, the “inhibition of binding of 200 nM proNGF to immobilized Sortilin” value [4] was ~85%.

Source: patent publication US9234036B2, “Modulation of activity of proneurotrophins” (H. Lundbeck A/S, priority 2006, dated 2016)
